# Source: US20210388084A1 (JJP BIOLOGICS SP Z O O, published 2021)
# What was measured:
# [1] = target: T1, recombinant C-terminal polyhistidine-tagged human (extracellular) CD89 (human, UniProt P24071 22-227); assay: ELISA, coated rhuCD89, half-maximum binding
# T1 construct: extracellular domain; bought (Sino Biological); also called rhuCD89
# Experimental: After extensive washing with PBS/0.05% Tween 20, plates were blocked with PBS/0.05% Tween 20/1% BSA (Roche) for 1 hour at RT. Subsequently, plates were incubated with 50 μL titrated (in block buffer) purified mouse anti-human CD89 antibody/well for 1 hour at RT. […] After extensive washing in PBS/0.05% Tween 20, binding of antibodies on rhuCD89 was determined with 1:5,000 diluted horseradish peroxidase (HRP)-conjugated goat anti-mouse IgG Fey-specific antibodies (Jackson ImmunoResearch) for 1 hour at RT, followed by a ready-to-use solution of TMB substrate (Invitrogen) for colorimetric detection.
# After extensive washing with PBS/0.05% Tween 20, plates were blocked with PBS/0.05% Tween 20/1% BSA (Roche) for 1 hour at RT. Subsequently, plates were incubated with and without 50 μL titrated (in block buffer) purified chimeric mouse/human anti-human CD89 antibody/well for 1 hour at RT. After extensive washing in PBS/0.05% Tween 20, binding of antibodies on rhuCD89 was determined with 1:5,000 diluted horseradish peroxidase (HRP)-conjugated goat anti-human IgG Fey-specific antibodies (Jackson ImmunoResearch) for 1 hour at RT, followed by a ready-to-use solution of TMB substrate (Invitrogen) for colorimetric detection.
# [2] = target: T2, membrane-bound full-length human CD89 (human, UniProt P24071 22-287); assay: FACS, HEK293F-huCD89, 24 h 37C no NaN3, Ab 10 ug/mL then IgA; competitor non-aggr serum IgA
# T2 construct: on stably or transiently transfected HEK293F cells; also called FcalphaRI; huCD89
# Experimental: (§1) After extensive washing in PBS/BSA/NaN₃, 1:200 diluted PE-conjugated streptavidin (Jackson ImmunoResearch) was added, and incubated for 30 minutes at 4° C. After extensive washing in PBS/BSA/NaN₃, cells were fixed in 2% formaldehyde in PBS/BSA/NaN₃ for 30 minutes at 4° C.
# [3] = target: T2, membrane-bound full-length human CD89; assay: FACS, HEK293F-huCD89, half-maximum binding
# Experimental: Then, 10 μL/tube (ie, 0.1×10⁶ cells) of these cells were incubated with or without 100 μL titrated (in PBS/BSA/NaN₃) purified chimeric mouse/human anti-human CD89 antibody/tube for 30 minutes at 4° C. […] After extensive washing in PBS/BSA/NaN₃, cells were subsequently incubated with 1:200 diluted PE-conjugated goat anti-human IgG Fey-specific antibodies (Jackson ImmunoResearch) for 30 minutes at 4° C. After extensive washing in PBS/BSA/NaN₃, cells were fixed in 2% formaldehyde in PBS/BSA/NaN₃ for 30 minutes at 4° C.
# [4] = target: T2, membrane-bound full-length human CD89; assay: FACS, HEK293F-huCD89, 24 h 37C no NaN3, IgA then Ab 10 ug/mL; pre-bound heat-aggr serum IgA
# Experimental: as §1
# [5] = target: T3, chimeric bovine EC1-Fcγ2R/human EC2-CD89 (bovine/human chimera); assay: FACS, transiently transfected HEK293F
# T3 chain: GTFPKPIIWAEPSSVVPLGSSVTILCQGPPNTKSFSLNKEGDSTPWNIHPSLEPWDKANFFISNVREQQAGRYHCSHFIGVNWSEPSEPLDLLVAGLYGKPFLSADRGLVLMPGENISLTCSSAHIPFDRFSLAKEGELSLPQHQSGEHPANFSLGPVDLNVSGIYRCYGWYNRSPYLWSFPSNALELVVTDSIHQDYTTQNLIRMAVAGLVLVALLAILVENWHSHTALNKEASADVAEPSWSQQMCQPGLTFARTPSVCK
# Experimental: After 48 hours and/or 72 hours, the binding of CD89/IgA blocking mouse anti-human CD89 antibodies to aforementioned chimeric human/bovine receptors on transfected cells was analyzed by FACS analysis. To this end, transient transfected HEK293F cells were put at 10×10⁶ cells/mL in ice-chilled phosphate-buffered saline containing 0.1% BSA (Sigma)/0.05% NaN₃ (PBS/BSA/NaN₃) supplemented with 50 μg/mL human IgGs (blocking Fcγ receptors; Sigma) for 10 minutes at 4° C. Then, 10 μL/tube (ie, 0.1×10⁶ cells) of these cells were incubated with or without 100 μL purified mouse anti-human CD89 antibody at 10 μg/mL (in PBS/BSA/NaN₃) for 30 minutes at 4° C. […] After extensive washing in PBS/BSA/NaN₃, cells were subsequently incubated with 1:200 diluted PE-conjugated goat anti-mouse IgG Fey-specific antibodies (Jackson ImmunoResearch) for 30 minutes at 4° C. After extensive washing in PBS/BSA/NaN₃, cells were fixed in 2% formaldehyde in PBS/BSA/NaN₃ for 30 minutes at 4° C.
# [6] = target: T2, membrane-bound full-length human CD89; assay: FACS, HEK293F-huCD89, 24 h 37C no NaN3, IgA then Ab 10 ug/mL; pre-bound non-aggr serum IgA
# Experimental: as §1
# [7] = target: T2, membrane-bound full-length human CD89; assay: FACS, HEK293F-huCD89, unlabeled Ab 10 ug/mL first; competitor MIP8a-PE
# Experimental: (§2) Then, 10 μL/tube (ie, 0.1×10⁶ cells) of these cells were incubated with or without 100 μL purified mouse anti-human CD89 antibody at 10 μg/mL (in PBS/BSA/NaN₃) for 30 minutes at 4° C. […] After extensive washing in PBS/BSA/NaN₃, cells were fixed in 2% formaldehyde in PBS/BSA/NaN₃ for 30 minutes at 4° C.
# [8] = target: T4, chimeric human/cynomolgus monkey CD89-I (human/cynomolgus monkey chimera, UniProt P24071 22-287); assay: FACS, transiently transfected HEK293F, 10 ug/mL; ++ strong, + intermediate, -/+ weak
# T4 construct: also called ΔGln22-Lys46 human EC1-CD89; I (22-46)
# T4 chain: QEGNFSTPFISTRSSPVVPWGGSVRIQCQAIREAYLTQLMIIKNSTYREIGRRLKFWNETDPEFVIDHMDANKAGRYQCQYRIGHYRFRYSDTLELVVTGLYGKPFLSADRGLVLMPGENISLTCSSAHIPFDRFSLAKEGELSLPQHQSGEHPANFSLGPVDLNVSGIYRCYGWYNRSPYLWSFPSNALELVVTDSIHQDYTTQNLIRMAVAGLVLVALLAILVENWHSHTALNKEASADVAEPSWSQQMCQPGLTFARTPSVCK
# Experimental: (§3) After 48 hours, the binding of CD89/IgA blocking mouse anti-human CD89 antibodies to aforementioned chimeric human CD89/cynomolgus monkey CD89 constructs on transfected cells was analyzed by FACS analysis. To this end, transient transfected HEK293F cells were put at 10×10⁶ cells/mL in ice-chilled phosphate-buffered saline containing 0.1% BSA (Sigma)/0.05% NaN₃ (PBS/BSA/NaN₃) supplemented with 50 μg/mL human IgGs (blocking Fcγ receptors; Sigma) for 10 minutes at 4° C. Then, 10 μL/tube (ie, 0.1×10⁶ cells) of these cells were incubated with or without 100 μL purified mouse anti-human CD89 antibody at 10 μg/mL (in PBS/BSA/NaN₃) for 30 minutes at 4° C. […] After extensive washing in PBS/BSA/NaN₃, cells were subsequently incubated with 1:200 diluted PE-conjugated goat anti-mouse IgG Fey-specific antibodies (Jackson ImmunoResearch) for 30 minutes at 4° C. After extensive washing in PBS/BSA/NaN₃, cells were fixed in 2% formaldehyde in PBS/BSA/NaN₃ for 30 minutes at 4° C.
# [9] = target: T5, chimeric human/cynomolgus monkey CD89-IV (human/cynomolgus monkey chimera, UniProt P24071 22-287); assay: as above
# T5 construct: also called ΔArg97-Gly121 human EC1-CD89
# T5 chain: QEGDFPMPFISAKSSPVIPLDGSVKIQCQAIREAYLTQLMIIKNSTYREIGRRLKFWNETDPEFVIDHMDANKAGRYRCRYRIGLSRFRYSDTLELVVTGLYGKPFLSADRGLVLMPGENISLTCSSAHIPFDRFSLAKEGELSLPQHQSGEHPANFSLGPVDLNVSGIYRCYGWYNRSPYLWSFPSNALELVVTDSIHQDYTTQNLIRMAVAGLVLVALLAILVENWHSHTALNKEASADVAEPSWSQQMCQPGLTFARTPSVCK
# Experimental: as §3
# [10] = target: T2, membrane-bound full-length human CD89; assay: FACS, HEK293F-huCD89, 4C +NaN3, Ab 10 ug/mL then IgA; competitor non-aggr serum IgA
# Experimental: Then, 10 μL/tube (ie, 0.1×10⁶ cells) of these cells were incubated with or without 50 μL purified mouse anti-human CD89 antibody at 20 μg/mL (in PBS/BSA/NaN₃) for 30 minutes at 4° C. […] After extensive washing in PBS/BSA/NaN₃, 1:200 diluted PE-conjugated streptavidin (Jackson ImmunoResearch) was added, and incubated for 30 minutes at 4° C. After extensive washing in PBS/BSA/NaN₃, cells were fixed in 2% formaldehyde in PBS/BSA/NaN₃ for 30 minutes at 4° C.
# [11] = target: T6, membrane full-length cynomolgus monkey CD89 (cynomolgus monkey); assay: FACS, transiently transfected HEK293F; - = no binding
# T6 construct: also called cynoCD89; cynomolgus EC1-CD89
# T6 chain: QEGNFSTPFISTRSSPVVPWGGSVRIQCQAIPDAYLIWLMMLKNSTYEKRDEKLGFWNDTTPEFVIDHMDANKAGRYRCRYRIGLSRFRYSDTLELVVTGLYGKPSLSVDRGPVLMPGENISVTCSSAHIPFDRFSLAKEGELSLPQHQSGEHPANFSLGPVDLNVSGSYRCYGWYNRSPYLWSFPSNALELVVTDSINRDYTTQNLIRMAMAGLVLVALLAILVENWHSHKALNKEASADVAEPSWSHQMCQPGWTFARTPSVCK
# Experimental: as §3
# [12] = target: T2, membrane-bound full-length human CD89; assay: FACS, HEK293F-huCD89, 4C +NaN3, Ab 10 ug/mL then IgA; competitor heat-aggr serum IgA
# Experimental: To mimic human IgA immune complexes, human (serum-derived) IgA (Bethyl Laboratories) was heated at 63° C. for 30 minutes, and cooled down to RT followed by centrifugation at 4° C. 12000×g for 2 minutes to remove any insoluble protein precipitation.
# Then, 10 μL/tube (ie, 0.1×10⁶ cells) of these cells were incubated with or without 50 μL purified mouse anti-human CD89 antibody at 20 μg/mL (in PBS/BSA/NaN₃) for 30 minutes at 4° C.
# [13] = target: T2, membrane-bound full-length human CD89; assay: FACS, HEK293F-huCD89, 24 h 37C no NaN3, Ab 10 ug/mL then IgA; competitor heat-aggr serum IgA
# Experimental: as §1
# [14] = target: T2, membrane-bound full-length human CD89; assay: FACS, HEK293F-huCD89, unlabeled Ab 10 ug/mL first; competitor A59-PE
# Experimental: as §2
# [15] = target: T2, membrane-bound full-length human CD89; assay: FACS, HEK293F-huCD89, unlabeled Ab 10 ug/mL first; competitor A3-PE
# Experimental: as §2
Binder,EC50 [1] [µg/mL],percent IgA binding (remaining) [2] [%],EC50 [3] [µg/mL],percent IgA binding (remaining) [4] [%],binding result [5],percent IgA binding (remaining) [6] [%],% blocking of MIP8a-PE binding [7] [%],binding result [8],binding result [9],percent IgA binding [10] [%],binding result [11],percent IgA binding [12] [%],percent IgA binding (remaining) [13] [%],% blocking of A59-PE binding [14] [%],% blocking of A3-PE binding [15] [%]
"mouse anti-human CD89-specific antibody 20B4 (antibody, mouse IgG1, V domains shown) VH: QVQLKESGPGLVAPSQSLSITCTVSGFSLTSYGVHWVRQPPGKGLEWLGIIWAGGSTSYNSALMSRLSISKDNSKSQVFLKMNSLQTDDTAMYYCARDHYDLFAYWGQGTLVTVSA VL: DILMTQSPSSMSVSLGDTVSITCHASQDISRNIGWLQQKPGKSFKGLIYHGTNLEDGVPSRFSGSGSGADYSLTISSLESEDFADYYCVQYAQFPRTFGGGTKLEIK",0.013,0 to 25,0.26,26 to 50,no binding (tested: 10 µg/mL),0 to 25,< 25,binds,binds,0 to 25,no binding (tested: 10 µg/mL),0 to 25,26 to 50,–,–
"mouse anti-human CD89-specific antibody 8F3 (antibody, mouse IgG1, V domains shown) VH: EVQLVESGGGLVKPGGSLKLSCAASGFTFSNYGMSWVRQTPDKRLEWVATMHSGGTYTYYPDNVKGRFTISRDNAKNNLYLQMSSLRSEDTAMYYCARETGLYDGLFDFWGQGTTLTVSS VL: DVQITQSPSYLAASPGETITINCRASKTISKYLAWYQEKPGKTNMLLIYSGSTLQSGVPSRFSGSGSGTDFTLTISSLEPEDLAMYYCQQHDEYPWTFGGGTKLEIK",0.052,0 to 25,0.714,0 to 25,no binding (tested: 10 µg/mL),0 to 25,< 25,binds,binds,0 to 25,no binding (tested: 10 µg/mL),0 to 25,0 to 25,< 25,< 25
"mouse anti-human CD89-specific antibody 10E7 (antibody, mouse IgG1, V domains shown) VH: EVQLVESGGGLVQPGGSLKLSCAASGLTFSSYGMSWVRQTPDKRLELVATINGNGDITYYPDSVKGRFTISRDNAKNTLYLQMSSLKSEDTAMYYCARDYDYDYAMDYWGQGTSVTVSS VL: DIQMTQSTSSLSASLGDSVTISCRASQDIINYLNWYQQKPDGTVKLLIYYTSRLHSGVPSRFSGSGSGTEYSLTVSNLEKEDIATYFCQQGKTLPYTFGGGTKLEIK",0.02,0 to 25,0.637,0 to 25,no binding (tested: 10 µg/mL),0 to 25,< 25,binds,binds,0 to 25,no binding (tested: 10 µg/mL),0 to 25,0 to 25,< 25,< 25
